{"source": "the supplement of paper PMC9112550", "about": "“Optimization of the antimicrobial peptide Bac7 by deep mutational scanning” (BMC Biology, 2022);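 note: peptides expressed intracellularly from a pBAD plasmid library in pooled LB shake-flask culture, induced with 0.3% L-arabinose, DNA abundance read by NGS, three biological replicates, DESeq2 with apeglm shrinkage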"}
{"system": "Escherichia coli TOP10", "assay": "shrunken log2 fold change of peptide-encoding DNA abundance (4.5 h post-induction vs induction); higher = less antimicrobial activity (less host growth inhibition)", "details": "time post-induction: 4.5 h; library: site-saturation at positions 5, 18, 19, 20"}
{"sequence": "RRIRGRPPRLPRPRPRPRHRPRP", "shrunken log2 fold change": 0.401}
{"sequence": "RRIRVRPPRLPRPRPRPSYRPRP", "shrunken log2 fold change": -0.775}
{"sequence": "RRIRCRPPRLPRPRPRPYAYPRP", "shrunken log2 fold change": -0.208}
{"sequence": "RRIRLRPPRLPRPRPRPNYAPRP", "shrunken log2 fold change": -0.0328}
{"sequence": "RRIRCRPPRLPRPRPRPWYQPRP", "shrunken log2 fold change": -0.272}
{"sequence": "RRIRKRPPRLPRPRPRPWPPPRP", "shrunken log2 fold change": 0.56}
{"sequence": "RRIRNRPPRLPRPRPRPFIAPRP", "shrunken log2 fold change": -0.32}
{"sequence": "RRIRTRPPRLPRPRPRPCVGPRP", "shrunken log2 fold change": -0.013}
{"sequence": "RRIRFRPPRLPRPRPRPFGQPRP", "shrunken log2 fold change": -0.288}
{"sequence": "RRIRDRPPRLPRPRPRPKKSPRP", "shrunken log2 fold change": 0.102}
{"sequence": "RRIRSRPPRLPRPRPRPINSPRP", "shrunken log2 fold change": 0.0337}
{"sequence": "RRIRYRPPRLPRPRPRPSHGPRP", "shrunken log2 fold change": -0.274}
{"sequence": "RRIRKRPPRLPRPRPRPWCAPRP", "shrunken log2 fold change": 0.113}
{"sequence": "RRIRVRPPRLPRPRPRPEVKPRP", "shrunken log2 fold change": 0.0366}
{"sequence": "RRIRARPPRLPRPRPRPHKCPRP", "shrunken log2 fold change": -0.205}
{"sequence": "RRIRTRPPRLPRPRPRPAVMPRP", "shrunken log2 fold change": 0.06}
{"sequence": "RRIRSRPPRLPRPRPRPWAPPRP", "shrunken log2 fold change": 0.0324}
{"sequence": "RRIRSRPPRLPRPRPRPGPVPRP", "shrunken log2 fold change": 0.384}
{"sequence": "RRIRLRPPRLPRPRPRPADPPRP", "shrunken log2 fold change": 0.0111}
{"sequence": "RRIRSRPPRLPRPRPRPMILPRP", "shrunken log2 fold change": 0.0266}
{"sequence": "RRIRDRPPRLPRPRPRPTNCPRP", "shrunken log2 fold change": -0.0515}
{"sequence": "RRIRMRPPRLPRPRPRPGTKPRP", "shrunken log2 fold change": 0.844}
{"sequence": "RRIRSRPPRLPRPRPRPHPDPRP", "shrunken log2 fold change": -0.0132}
{"sequence": "RRIRFRPPRLPRPRPRPYLFPRP", "shrunken log2 fold change": 0.425}
{"sequence": "RRIRTRPPRLPRPRPRPIMPPRP", "shrunken log2 fold change": -0.331}
{"sequence": "RRIRMRPPRLPRPRPRPKKTPRP", "shrunken log2 fold change": 1.46}
{"sequence": "RRIRHRPPRLPRPRPRPGEQPRP", "shrunken log2 fold change": 0.0974}
{"sequence": "RRIRERPPRLPRPRPRPFDTPRP", "shrunken log2 fold change": -0.267}
{"sequence": "RRIRRRPPRLPRPRPRPPERPRP", "shrunken log2 fold change": 0.643}
{"sequence": "RRIRPRPPRLPRPRPRPRYKPRP", "shrunken log2 fold change": -0.269}
{"sequence": "RRIRGRPPRLPRPRPRPFVMPRP", "shrunken log2 fold change": -0.0182}
{"sequence": "RRIRRRPPRLPRPRPRPYGKPRP", "shrunken log2 fold change": -0.813}
{"sequence": "RRIRARPPRLPRPRPRPQELPRP", "shrunken log2 fold change": 0.0199}
{"sequence": "RRIRTRPPRLPRPRPRPVCGPRP", "shrunken log2 fold change": 0.179}
{"sequence": "RRIRNRPPRLPRPRPRPNHMPRP", "shrunken log2 fold change": -0.16}
{"sequence": "RRIRKRPPRLPRPRPRPYWLPRP", "shrunken log2 fold change": -0.229}
{"sequence": "RRIRYRPPRLPRPRPRPCCLPRP", "shrunken log2 fold change": -0.203}
{"sequence": "RRIRGRPPRLPRPRPRPKSPPRP", "shrunken log2 fold change": 0.677}
{"sequence": "RRIRQRPPRLPRPRPRPKMNPRP", "shrunken log2 fold change": -0.328}
{"sequence": "RRIRWRPPRLPRPRPRPDWHPRP", "shrunken log2 fold change": -0.0337}
{"sequence": "RRIRARPPRLPRPRPRPHWCPRP", "shrunken log2 fold change": 0.0773}
{"sequence": "RRIRIRPPRLPRPRPRPWIEPRP", "shrunken log2 fold change": -0.186}
{"sequence": "RRIRRRPPRLPRPRPRPGQVPRP", "shrunken log2 fold change": 0.239}
{"sequence": "RRIRERPPRLPRPRPRPNMDPRP", "shrunken log2 fold change": -0.209}
{"sequence": "RRIRWRPPRLPRPRPRPKKHPRP", "shrunken log2 fold change": 0.293}
{"sequence": "RRIRWRPPRLPRPRPRPPATPRP", "shrunken log2 fold change": 1.06}
{"sequence": "RRIRKRPPRLPRPRPRPRNWPRP", "shrunken log2 fold change": 0.95}
{"sequence": "RRIRGRPPRLPRPRPRPMCQPRP", "shrunken log2 fold change": 0.62}
{"sequence": "RRIRVRPPRLPRPRPRPLCMPRP", "shrunken log2 fold change": -0.123}
{"sequence": "RRIRRRPPRLPRPRPRPTDDPRP", "shrunken log2 fold change": 0.741}
{"sequence": "RRIRCRPPRLPRPRPRPKTFPRP", "shrunken log2 fold change": -0.138}
{"sequence": "RRIRCRPPRLPRPRPRPPFPPRP", "shrunken log2 fold change": 0.302}
{"sequence": "RRIRKRPPRLPRPRPRPSFKPRP", "shrunken log2 fold change": -0.0346}
{"sequence": "RRIRQRPPRLPRPRPRPECDPRP", "shrunken log2 fold change": 0.0401}
{"sequence": "RRIRFRPPRLPRPRPRPQAMPRP", "shrunken log2 fold change": 0.0123}
{"sequence": "RRIRLRPPRLPRPRPRPPWLPRP", "shrunken log2 fold change": 0.439}
{"sequence": "RRIRNRPPRLPRPRPRPLPLPRP", "shrunken log2 fold change": 0.187}
{"sequence": "RRIRGRPPRLPRPRPRPYMTPRP", "shrunken log2 fold change": 0.109}
{"sequence": "RRIRSRPPRLPRPRPRPASIPRP", "shrunken log2 fold change": "7.54e-05"}
{"sequence": "RRIRVRPPRLPRPRPRPKVKPRP", "shrunken log2 fold change": 0.0531}
{"sequence": "RRIRRRPPRLPRPRPRPYKYPRP", "shrunken log2 fold change": -0.415}
{"sequence": "RRIRKRPPRLPRPRPRPPSFPRP", "shrunken log2 fold change": 0.288}
{"sequence": "RRIRFRPPRLPRPRPRPPCWPRP", "shrunken log2 fold change": 0.478}
{"sequence": "RRIRERPPRLPRPRPRPCSHPRP", "shrunken log2 fold change": -0.0193}
{"sequence": "RRIRLRPPRLPRPRPRPILKPRP", "shrunken log2 fold change": 0.0777}
{"sequence": "RRIRLRPPRLPRPRPRPMWEPRP", "shrunken log2 fold change": 0.00629}
{"sequence": "RRIRSRPPRLPRPRPRPAERPRP", "shrunken log2 fold change": 0.0522}
{"sequence": "RRIRNRPPRLPRPRPRPFPTPRP", "shrunken log2 fold change": 0.00541}
{"sequence": "RRIRFRPPRLPRPRPRPNKGPRP", "shrunken log2 fold change": -0.606}
{"sequence": "RRIRHRPPRLPRPRPRPKSSPRP", "shrunken log2 fold change": -0.0395}
{"sequence": "RRIRCRPPRLPRPRPRPESWPRP", "shrunken log2 fold change": 0.598}
{"sequence": "RRIRPRPPRLPRPRPRPDTNPRP", "shrunken log2 fold change": -0.239}
{"sequence": "RRIRHRPPRLPRPRPRPAIRPRP", "shrunken log2 fold change": -0.000964}
{"sequence": "RRIRERPPRLPRPRPRPKQNPRP", "shrunken log2 fold change": -0.073}
{"sequence": "RRIRDRPPRLPRPRPRPKDIPRP", "shrunken log2 fold change": -0.0599}
{"sequence": "RRIRTRPPRLPRPRPRPFEWPRP", "shrunken log2 fold change": -0.0651}
{"sequence": "RRIRNRPPRLPRPRPRPNEDPRP", "shrunken log2 fold change": 0.00927}
{"sequence": "RRIRARPPRLPRPRPRPTRKPRP", "shrunken log2 fold change": 0.574}
{"sequence": "RRIRCRPPRLPRPRPRPLKLPRP", "shrunken log2 fold change": -0.271}
{"sequence": "RRIRPRPPRLPRPRPRPNVIPRP", "shrunken log2 fold change": -0.451}
{"sequence": "RRIRVRPPRLPRPRPRPIRLPRP", "shrunken log2 fold change": -0.419}
{"sequence": "RRIRSRPPRLPRPRPRPIRRPRP", "shrunken log2 fold change": 0.011}
{"sequence": "RRIRPRPPRLPRPRPRPEYIPRP", "shrunken log2 fold change": -0.0411}
{"sequence": "RRIRRRPPRLPRPRPRPQQEPRP", "shrunken log2 fold change": -0.0236}
{"sequence": "RRIRFRPPRLPRPRPRPHCSPRP", "shrunken log2 fold change": 0.0308}
{"sequence": "RRIRCRPPRLPRPRPRPKFEPRP", "shrunken log2 fold change": 0.00386}
{"sequence": "RRIRQRPPRLPRPRPRPVNTPRP", "shrunken log2 fold change": -0.0633}
{"sequence": "RRIRTRPPRLPRPRPRPVFPPRP", "shrunken log2 fold change": -0.339}
{"sequence": "RRIRTRPPRLPRPRPRPQATPRP", "shrunken log2 fold change": 0.119}
{"sequence": "RRIRKRPPRLPRPRPRPTPYPRP", "shrunken log2 fold change": 0.235}
{"sequence": "RRIRLRPPRLPRPRPRPLHRPRP", "shrunken log2 fold change": -0.226}
{"sequence": "RRIRHRPPRLPRPRPRPFEDPRP", "shrunken log2 fold change": 0.0112}
{"sequence": "RRIRYRPPRLPRPRPRPLDYPRP", "shrunken log2 fold change": -1.11}
{"sequence": "RRIRYRPPRLPRPRPRPLLSPRP", "shrunken log2 fold change": -0.186}
{"sequence": "RRIRQRPPRLPRPRPRPCQRPRP", "shrunken log2 fold change": -0.0113}
{"sequence": "RRIRDRPPRLPRPRPRPIWTPRP", "shrunken log2 fold change": 0.0557}
{"sequence": "RRIRPRPPRLPRPRPRPKPCPRP", "shrunken log2 fold change": -0.044}
{"sequence": "RRIRGRPPRLPRPRPRPGMWPRP", "shrunken log2 fold change": 0.78}
{"sequence": "RRIRSRPPRLPRPRPRPHGDPRP", "shrunken log2 fold change": 0.043}
{"sequence": "RRIRHRPPRLPRPRPRPWYVPRP", "shrunken log2 fold change": 0.00296}
{"sequence": "RRIRGRPPRLPRPRPRPFNLPRP", "shrunken log2 fold change": -0.643}
{"sequence": "RRIRNRPPRLPRPRPRPEQGPRP", "shrunken log2 fold change": 0.111}
{"sequence": "RRIRYRPPRLPRPRPRPMTPPRP", "shrunken log2 fold change": -0.0195}
{"sequence": "RRIRRRPPRLPRPRPRPCCAPRP", "shrunken log2 fold change": 0.372}
{"sequence": "RRIRFRPPRLPRPRPRPGHHPRP", "shrunken log2 fold change": -0.561}
{"sequence": "RRIRIRPPRLPRPRPRPAHQPRP", "shrunken log2 fold change": -0.0564}
{"sequence": "RRIRLRPPRLPRPRPRPESLPRP", "shrunken log2 fold change": 0.157}
{"sequence": "RRIRGRPPRLPRPRPRPVGWPRP", "shrunken log2 fold change": 1.26}
{"sequence": "RRIRVRPPRLPRPRPRPPRTPRP", "shrunken log2 fold change": 0.331}
{"sequence": "RRIRWRPPRLPRPRPRPCEQPRP", "shrunken log2 fold change": 0.263}
{"sequence": "RRIRSRPPRLPRPRPRPPDMPRP", "shrunken log2 fold change": -0.188}
{"sequence": "RRIRLRPPRLPRPRPRPEMQPRP", "shrunken log2 fold change": 0.0197}
{"sequence": "RRIRMRPPRLPRPRPRPLKHPRP", "shrunken log2 fold change": -0.0893}
{"sequence": "RRIRLRPPRLPRPRPRPPATPRP", "shrunken log2 fold change": 0.725}
{"sequence": "RRIRQRPPRLPRPRPRPMHMPRP", "shrunken log2 fold change": -0.369}
{"sequence": "RRIRQRPPRLPRPRPRPQCEPRP", "shrunken log2 fold change": -0.234}
{"sequence": "RRIRWRPPRLPRPRPRPMVRPRP", "shrunken log2 fold change": 0.0171}
{"sequence": "RRIRDRPPRLPRPRPRPYGCPRP", "shrunken log2 fold change": 0.141}
{"sequence": "RRIRKRPPRLPRPRPRPPVQPRP", "shrunken log2 fold change": 0.83}
{"sequence": "RRIRPRPPRLPRPRPRPTISPRP", "shrunken log2 fold change": -0.218}
{"sequence": "RRIRGRPPRLPRPRPRPHNPPRP", "shrunken log2 fold change": -0.0429}
{"sequence": "RRIRYRPPRLPRPRPRPGPNPRP", "shrunken log2 fold change": 0.205}
{"sequence": "RRIRVRPPRLPRPRPRPSWLPRP", "shrunken log2 fold change": 0.23}
{"sequence": "RRIRQRPPRLPRPRPRPWWRPRP", "shrunken log2 fold change": 0.0847}
{"sequence": "RRIRDRPPRLPRPRPRPNVDPRP", "shrunken log2 fold change": 0.0276}
